Experimental data reported in publication PMC5263234, “Dynamin-2 Stabilizes the HIV-1 Fusion Pore with a Low Oligomeric State” (Cell Reports, 2017).
Where “and” joins values, the source holds several entries; their conditions need not be identical. Identical values can stand only once.

Columns and labels:
[1] = target: the molecule itself; assay: number and brightness analysis with TIRF microscopy
[2] = target: the molecule itself; assay: number and brightness analysis with TIRF microscopy; live TZM-bl cells expressing Dynamin-mCherry, exposed to HIV(JRFL) at MOI 10; 100 frames at 50 ms per frame; brightness calibrated against mCherry alone

B1: dynamin-2 (natural protein, UniProt P50570 1-870, looked up)
chain: MGNRGMEELIPLVNKLQDAFSSIGQSCHLDLPQIAVVGGQSAGKSSVLENFVGRDFLPRGSGIVTRRPLILQLIFSKTEHAEFLHCKSKKFTDFDEVRQEIEAETDRVTGTNKGISPVPINLRVYSPHVLNLTLIDLPGITKVPVGDQPPDIEYQIKDMILQFISRESSLILAVTPANMDLANSDALKLAKEVDPQGLRTIGVITKLDLMDEGTDARDVLENKLLPLRRGYIGVVNRSQKDIEGKKDIRAALAAERKFFLSHPAYRHMADRMGTPHLQKTLNQQLTNHIRESLPALRSKLQSQLLSLEKEVEEYKNFRPDDPTRKTKALLQMVQQFGVDFEKRIEGSGDQVDTLELSGGARINRIFHERFPFELVKMEFDEKDLRREISYAIKNIHGVRTGLFTPDLAFEAIVKKQVVKLKEPCLKCVDLVIQELINTVRQCTSKLSSYPRLREETERIVTTYIREREGRTKDQILLLIDIEQSYINTNHEDFIGFANAQQRSTQLNKKRAIPNQGEILVIRRGWLTINNISLMKGGSKEYWFVLTAESLSWYKDEEEKEKKYMLPLDNLKIRDVEKGFMSNKHVFAIFNTEQRNVYKDLRQIELACDSQEDVDSWKASFLRAGVYPEKDQAENEDGAQENTFSMDPQLERQVETIRNLVDSYVAIINKSIRDLMPKTIMHLMINNTKAFIHHELLAYLYSSADQSSLMEESADQAQRRDDMLRMYHALKEALNIIGDISTSTVSTPVPPPVDDTWLQSASSHSPTPQRRPVSSIHPPGRPPAVRGPTPGPPLIPVPVGAAASFSAPPIPSRPGPQSVFANSDLFPAPPQIPSRPVRIPPGIPPGVPSRRPPAAPSRPTIIRPAEPSLLD
notes: dynamin-2 (DNM2), large GTPase; Each copy carries ONE fluorescent protein; FRET-FLIM used an EGFP-tagged copy together with an mCherry-tagged copy; number and brightness used the mCherry-tagged copy alone; The Addgene dynamin-2 plasmids may encode the rat protein (surmise); also called DNM2; Dyn-GFP; source: TZM-bl cells, transfected (plasmids obtained from Addgene), in live cells
Q: Which results are given for B1?
A: stoichiometry N [1]: 8 and 6; stoichiometry N [2]: 4
